Changes are numbered by the printed parent chain. Each block holds one binder with its values, some of them ahead of it.
Columns and labels:
[1] = target: T1, human MCAM domain 3 (amino acids 244-321) hFc construct (human, UniProt P43121 244-321); experiment: ForteBio BLI, MCAMhFc domains on anti-human IgG Fc sensors, antibody 5 ug/ml
T1 construct: One of the 'various MCAMhFc domains' immobilised on anti-human IgG Fc biosensors; also called MCAMhFc domain 3; not shown: human IgG Fc (hFc)
T1 sequence: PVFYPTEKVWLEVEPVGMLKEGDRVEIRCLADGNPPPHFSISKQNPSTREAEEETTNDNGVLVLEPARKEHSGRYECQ
Source text: The following protocol was used: ForteBio anti-human IgG Fc biosensors were used to immobilize various MCAMhFc domains including full length MCAMhFc protein on to biosensor surface. […] After loading these samples into a black 96 well plate, the Octet Red was programmed as follows: 60 seconds for baseline #1; 180 seconds for loading various domains; 60 seconds for baseline #2; 180 seconds for association of antibody to domain; and 240 seconds for dissociation of antibody from domain.
1. MCAMhFc final concentration @ 5 ug/ml [0342] […] 3. ForteBio anti-human IgG Fc Capture (AHC) biosensors for kinetics experiments, cat#18-5060 [0344] 4. Block 96 well plate from Greiner Bio-one, cat#655209 [0345] 5. ForteBio Octet Red machine [0346] 6. Fresh tissue culture medium, DMEM with 20% FCS, was used as buffer for dilution The results from these analyses are as follows.

[2] = target: T2, human MCAM V340A mutant (V5/HIS6) on BHK cells (human, UniProt P43121 24-646); experiment: shotgun mutagenesis, immunofluorescence on BHK cells
T2 sequence: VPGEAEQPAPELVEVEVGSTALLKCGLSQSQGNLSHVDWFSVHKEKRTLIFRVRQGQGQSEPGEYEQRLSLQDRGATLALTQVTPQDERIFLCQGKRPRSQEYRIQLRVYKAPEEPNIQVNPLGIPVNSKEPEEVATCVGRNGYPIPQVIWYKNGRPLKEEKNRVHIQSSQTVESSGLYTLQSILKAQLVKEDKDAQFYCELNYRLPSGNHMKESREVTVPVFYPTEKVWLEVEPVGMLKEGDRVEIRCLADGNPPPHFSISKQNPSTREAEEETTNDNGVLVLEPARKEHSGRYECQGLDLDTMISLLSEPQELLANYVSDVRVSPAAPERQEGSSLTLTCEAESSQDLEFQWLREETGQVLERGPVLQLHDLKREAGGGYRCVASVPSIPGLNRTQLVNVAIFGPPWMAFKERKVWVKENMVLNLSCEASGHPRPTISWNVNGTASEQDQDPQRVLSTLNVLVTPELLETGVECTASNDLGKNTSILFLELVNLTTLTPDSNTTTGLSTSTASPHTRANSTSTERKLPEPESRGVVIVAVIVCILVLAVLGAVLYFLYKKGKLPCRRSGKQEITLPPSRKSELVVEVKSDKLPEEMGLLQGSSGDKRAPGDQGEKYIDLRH
Method: (§1) The mutation library was assayed for surface expression (mouse sera binding) and monoclonal antibody binding, in triplicate. Each raw data point was background-subtracted and normalized to the wild type MCAM reactivity values. The mean monoclonal antibody binding value for each clone is plotted as a function of its mean surface expression value (FIG. 1, gray diamonds). Thresholds of <30% monoclonal antibody reactivity and >50% mouse sera binding were applied to identify clones (FIG. 1, black diamonds) that were negative for monoclonal antibody binding but positive for surface expression.
(§2) Residues involved in antibody binding were identified as those that were negative for monoclonal antibody binding (<30% WT) but positive for surface expression (>50% WT) (Table 4). The mean reactivity (and standard deviation) were determined for each critical residue.

[3] = target: T3, human MCAM Y318A mutant (V5/HIS6) on BHK cells (human, UniProt P43121 24-646); experiment: shotgun mutagenesis library, immunofluorescence on BHK cells, triplicate; standard deviation in brackets
T3 sequence: T2 sequence with Y295A, A317V
Method: as §1, §2

[4] = target: T4, human MCAM C272A mutant (V5/HIS6) on BHK cells (human, UniProt P43121 24-646); experiment: as above
T4 sequence: T2 sequence with C249A, A317V
Method: as §1, §2

[5] = target: T2, human MCAM V340A mutant (V5/HIS6) on …; experiment: as above
Method: as §1, §2

[6] = target: T5, human MCAM W377A mutant (V5/HIS6) on BHK cells (human, UniProt P43121 24-646); experiment: as above
T5 sequence: T2 sequence with A317V, W354A
Method: as §1, §2

[7] = target: T6, human MCAM C320A mutant (V5/HIS6) on BHK cells (human, UniProt P43121 24-646); experiment: as above
T6 sequence: T2 sequence with C297A, A317V
Method: as §1, §2

- binding result [1]: binds
B1: mouse anti-human MCAM monoclonal antibody clone 1414.1.2 (antibody, V domains shown)
VH: EIQLQQTGPELVKPGASVKISCKASGYSFTDYIMLWVKQSHGKSLEWIGNINPYSGSSGYNLKFKGKATLTVDKSSSTAYMQLNSLTSEDSAVYYCARGKDFAMDYWGQGTSVTVSS
VL: DIVMSQSPSSLAVSAGEKVTMSCKSSQSLLNSSTRKNFLAWYQQKPGQSPKLLIYWASTRESGVPDRFTGSGSGTDFTLTISSVQAEDLAVYYCKQSYNRYTFGGGTKLEIK
notes: Mouse hybridoma monoclonal

B2: mouse anti-human MCAM monoclonal antibody clone 1749.1.3 (antibody, V domains shown)
VH: DVKLVESGGDLVKPGGSLKLSCAASGFTFSSYIMSWVRQTPEKRLEWVATISSGGSSTYYPDSVKGRFTISRDNAKNTLYLQMSSLKSEDTAMYYCTRDDDYDVKVFAYWGQGTLVTVSA
VL: B1 VL with S22N, Q27R, S33R, T34I, F38Y, R100L, Y101L, G105A, I111L
notes: Mouse hybridoma monoclonal; also called m1749
- binding result [2]: no binding (tested: <30% WT; 0.5 µg/mL antibody)
- mean reactivity (% of wild type MCAM) [3]: 7.1 % of WT
- mean reactivity (% of wild type MCAM) [4]: 7.6 % of WT
- mean reactivity (% of wild type MCAM) [5]: 8.7 % of WT
- mean reactivity (% of wild type MCAM) [6]: 13.7 % of WT
- mean reactivity (% of wild type MCAM) [7]: 9.3 % of WT

- binding result [1]: binds
B3: mouse anti-human MCAM monoclonal antibody clone 1415.1.1 (antibody, V domains shown)
VH: QVQLQQPGAELVQPGAPVKLSCKASGYIFTSYWMNWVKQRPGRGLEWIGRIDPSDSKIHYNQKFKDKATLTVDRSSSTAYIQLGSLTSEDSAVYYCAKEGGLRRGDYAMDYWGQGTSVTVSS
VL: DIVMTQSPATLSVTPGDRVSLSCRASQSISDYLHWYQQKSHESPRLLIKYASQSISGIPSRFSGSGSGSDFTLSINSVEPEDVGVYYCQNGHNFPRTFGGGTKLEIK
notes: Mouse hybridoma monoclonal

- binding result [1]: binds
B4: mouse anti-human MCAM monoclonal antibody clone 1174.1.3 (antibody, V domains shown)
VH: QIQLVQSGPELKKPGETVKISCKASGYTFTNYGMNWVKQAPGKGLKWMGWINTYTGEPTYADDFKGRFALSLETSASTAYLQINNLKNEDMATYFCARYRYNKYERAMDYWGQGTSVTVSS
VL: DIVLTQSPASLAVSLGQRATISCRASKSVSTSGYSYMYWYQQKPGQPPKLLIYLASNLESGVPARFSGSGSGTDFTLNIHPVEEEDAATYYCQHSRELPFTFGSGTKLEIK
notes: Mouse hybridoma monoclonal
